The text below walks through data of patent US8410115B2, “Methods of treating inflammatory and autoimmune diseases with alpha-4 inhibitory compounds” (Elan Pharmaceuticals, Inc., priority 2006, dated 2013).

A value given as a limit tells only on which side of the number the result lay.

Data set [1] has as its system JCV. As to conditions: one MS patient with PML after natalizumab plus AVONEX; cited from earlier work.
Data set [2] relates to JCV. As to conditions: in vitro; cited from earlier work.
Data set [3] concerns the target serotonin 5HT2(A) receptor (Homo sapiens, UniProt P28223). The data set is described as follows: 5HT2(A) receptor antagonism in vitro.
Data set [4] deals with MS patients. As to conditions: 2-year Phase 3 MS trials; cited from earlier work.
A short description of data set [5]: Natalizumab in combination with glatiramer acetate over six months. As to conditions: 20 mg daily glatiramer acetate. The data set is classed as in vivo, human. As to the method:
The safety of natalizumab in combination with glatiramer acetate was evaluated by administering natalizumab over six months to patients who continued to receive 20 mg of daily glatiramer acetate. […] However, this study was of insufficient size or duration to establish the long-term safety or efficacy in this population.

Data set [6] in a line: Population pharmacokinetic analysis of natalizumab with concurrent AVONEX. The data set is classed as in vivo, human. The procedure: In a placebo-controlled MS study, the administration of AVONEX® appeared to be associated with an increase in the serum concentrations of natalizumab in a small cohort on whom intensive pharmacokinetic sampling was performed. However, based upon a comparison of the mean post-hoc parameter estimates from the population pharmacokinetic analysis, steady-state clearance and half-life values differed between patients concurrently taking AVONEX® and natalizumab monotherapy, but only by approximately 5%, and were not considered clinically significant. […] It is notable that the two reports of PML in the MS database occurred in patients receiving concomitant AVONEX®. Thus, the risk of PML with natalizumab treatment may be increased by concomitant treatment with interferon β, though this could have occurred in two patients on combination therapy due to chance alone (p=0.23).

For data set [7], the system named is rheumatoid arthritis patients. Put plainly: Deaths in rheumatoid arthritis trials of natalizumab. As to conditions: natalizumab-treated rheumatoid arthritis patients. The data set is classed as in vivo, human. An excerpt: Three deaths occurred in the rheumatoid arthritis trials, two in natalizumab-treated patients and one in a patient treated with a placebo. The natalizumab-treated patients died of hemoptysis with respiratory failure and end-stage rheumatoid pulmonary disease. The placebo-treated patient died of circulatory and respiratory insufficiency.

In data set [8] the test system is relapsing remitting MS patients. Put plainly: Phase 3 monotherapy study: natalizumab versus placebo for 120 weeks. The data set is classed as in vivo, human. The procedure: (§1) As described in more detail in Example 1, two Phase 3 studies were conducted to study the effect of two years of treatment with natalizumab. One of the studies used natalizumab alone (the monotherapy study) and the other used natalizumab in combination with AVONEX® (the add-on therapy study). Both these Phase 3 studies were designed with two sets of primary and secondary endpoints. The primary and secondary endpoints were selected to measure the effects of natalizumab on the inflammatory aspects of the disease after a mean of one year of follow-up in each study (900 patient-years of observation in the monotherapy study; 1,200 patient-years in the add-on therapy study).
(§2) The primary endpoint of these studies was the annualized rate of clinical relapses. Two of the secondary endpoints were two supporting MRI measures of inflammatory disease activity, namely, the mean number of new or newly enlarging T2-hyperintense lesions (measuring lesion accumulation over time) and the mean number of Gd-enhancing lesions (measuring acute disease activity), as ranked in order of importance. The proportion of patients remaining relapse-free provided a third secondary endpoint.
(§3) Another series of endpoints was assessed at the conclusion of each study following two years of natalizumab treatment. The endpoints for this final analysis were selected to determine natalizumab's effects on measures associated with MS disease progression. The primary endpoint at two years was the time until onset of sustained progression of disability, as measured by changes in EDSS scores. Similar to the one-year analysis, the secondary endpoints were additional MRI and clinical measures that would support the primary analysis. The secondary endpoints at two years, ranked in order of importance, were the rate of MS relapses (to confirm one-year relapse observations), the mean volume of T2-hyperintense lesions (a measure of overall MS disease burden), the mean number of T1-hypointense lesions (a measure of axonal loss), and progression of disability as determined by changes in the MSFC (to confirm and expand upon disability effects as measured by the EDSS).
(§4) Given two primary endpoints at two different time points (annualized relapse rate at one year, time to disability progression at two years), the Hochberg procedure for multiple comparisons (Hochberg, Biometrika 75:800-802 (1988)) was used to evaluate the primary endpoint. Each set of secondary endpoints was prioritized in order of importance as listed above. A closed testing procedure was used for each set, such that if statistical significance was not achieved for an endpoint within a set, all endpoints(s) of a lower rank in that set were not considered statistically significant.
Both Phase 3 studies had similar designs. In the monotherapy study, 942 untreated relapsing remitting MS patients were randomized to receive natalizumab or placebo for 120 weeks (30 infusions) using a 2:1 allocation. In the add-on study, 1,171 patients who had been receiving weekly intramuscular injections of 30 μg AVONEX®, but who had relapsed despite this treatment, were randomized using a 1:1 allocation to add natalizumab or placebo to their regimen, also for 120 weeks.
Efficacy parameters included EDSS scores, MS relapses, brain MRI scans, MSFC scores, visual function tests, and quality of life. EDSS and MSFC were measured every 12 weeks, brain MRI scans and quality of life questionnaires at baseline and every year, and MS relapses on an ongoing basis.
The patient population in the two Phase 3 studies were relapsing MS patients according to the criteria of the International Panel on the Diagnosis of Multiple Sclerosis (McDonald et al., Ann. Neurol. 50:121-127 (2001)). It encompassed a broad range of ages and disease severity, and represented the current relapsing MS population with active disease, consistent with the approved indication. Patients with primary- or secondary-progressive MS were excluded. […]

The next data set concerns Crohn's Disease patients. Put plainly: Deaths in Crohn's Disease trials of natalizumab. The data set is classed as in vivo, human. As to conditions: natalizumab-treated Crohn's Disease patients. An excerpt: The exposure to natalizumab was approximately three-fold greater in these trials than exposure to placebo. The causes of death were acute myocardial infarction, acute renal failure, carbon dioxide asphyxiation, PML, pneumocystis carinii pneumonia, and bronchopulmonary aspergillosis.

Data set [9] has as its system relapsing MS patients relapsing despite AVONEX. Put plainly: Phase 3 add-on therapy study: natalizumab added to AVONEX versus AVONEX plus placebo for 120 weeks. The data set is classed as in vivo, human. As to the method:
as §1, §2, §3, §4
The add-on therapy study was designed to evaluate the efficacy of natalizumab against active control for patients breaking through AVONEX® monotherapy. The choice of β-interferon was supported by available data on the proposed mechanisms of action of the available drugs. As discussed above, natalizumab has a well-defined mechanism of action, specifically targeting cellular adhesion and trans-endothelial migration via α4-integrins, as do the class of alpha-4 inhibitor compounds. Although the exact mechanism by which interferon-β exerts efficacy in MS is not known, interferon-β induces a large number of cellular processes involved in cytokine secretion and cellular phenotype changes. […]

In data set [10] the test system is MS patients. The data set is described as follows: Safety of natalizumab in MS clinical trials (adverse events, deaths). The data set is classed as in vivo, human. An excerpt:
Eighteen treatment-emergent deaths occurred in the entire natalizumab program. The adverse events encountered in the trials, both common and serious, were similar in natalizumab-treated patients and controls. Adverse events that led to discontinuation of natalizumab occurred in 5.8% of natalizumab-treated MS patients and in 4.8% of placebo-treated MS patients, with urticaria being the most common cause of discontinuation in the natalizumab-treated patients (1.2%).
Of the eighteen deaths that occurred during the clinical trials, five occurred in the placebo-controlled MS trials (including two in patients who had received natalizumab and three who had received placebo). The patients who received natalizumab died of alcohol intoxication and metastatic malignant melanoma. The patients who received placebo died of cardiac arrest, respiratory arrest, and pleural carcinomatosis with seizures. Four deaths occurred in the open-label MS trials, due to respiratory distress, PML, suicide, and seizure due to MS.
At least one serious adverse event was encountered by 251 of the 1,617 natalizumab-treated MS patients (15.5%) and by 214 of the 1,135 placebo-treated patients (18.9%) in the placebo-controlled trial. The most common serious adverse events, classified by organ systems, were nervous system disorders (5.9% natalizumab, 10.2% placebo). […] The second most common serious adverse events were infections and infestations (2.4% natalizumab, 2.2% placebo), with appendicitis and urinary tract infection (<1% in both groups) as the most common.

Data set [11] has as its system JCV. The data set is described as follows: Safety evaluation for PML / JCV in natalizumab-exposed clinical trial patients. The source says: Clinical trial patients exposed to natalizumab were systematically assessed for evidence of incipient PML or any other opportunistic infection.
Criteria were established prospectively for the neuroradiologic evidence and laboratory assays for the diagnosis of PML. A diagnosis of “confirmed PML” was defined by presence of progressive clinical disease, MRI signs typical of PML, detection of JCV DNA in CSF, or pathologic confirmation. Sufficient evidence to exclude PML was defined as lack of progressive neurological disease, MRI lesions not typical of PML or stable over time, or no detectable JCV DNA in the CSF if the MRI was suspicious. A case was deemed “indeterminate” if there was clinical or MRI suspicion of PML and follow-up clinical, MRI, or CSF data could not be obtained.
Investigators were requested to perform the assessment procedure, including medical history, neurological examination, brain MRI, and CSF collection. Blood samples were also collected for PCR analysis of JCV DNA as an exploratory adjunct. MRI scans were assessed by Central Reader Centers with expertise in neurological disorders, including the two Central Reader Centers for the original Phase 3 MS studies. A consensus guideline was developed prospectively to standardize criteria to help distinguish MS white matter abnormalities from those of PML.

Where [12] appears, read: mean post-hoc parameter estimates, population pharmacokinetic analysis.

serotonin 5HT2(A) receptor, sequence (P28223 whole entry): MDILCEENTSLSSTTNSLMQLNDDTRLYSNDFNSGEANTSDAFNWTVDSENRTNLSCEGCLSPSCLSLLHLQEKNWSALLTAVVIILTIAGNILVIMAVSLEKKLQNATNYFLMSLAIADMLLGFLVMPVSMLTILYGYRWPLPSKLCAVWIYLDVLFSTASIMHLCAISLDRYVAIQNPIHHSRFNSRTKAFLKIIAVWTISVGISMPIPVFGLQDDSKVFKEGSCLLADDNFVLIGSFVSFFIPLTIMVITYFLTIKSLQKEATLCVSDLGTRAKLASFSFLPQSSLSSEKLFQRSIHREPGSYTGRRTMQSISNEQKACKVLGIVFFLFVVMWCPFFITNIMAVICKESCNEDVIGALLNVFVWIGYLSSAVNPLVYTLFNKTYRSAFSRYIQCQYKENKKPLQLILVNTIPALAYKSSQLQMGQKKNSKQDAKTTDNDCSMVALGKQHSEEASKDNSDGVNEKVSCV

Turning to `Nc1ccn(C[C@@H](CO)OCP(=O)(O)O)c(=O)n1` [Cidofovir, cidofovir], the “Clinical effect in PML” value in the data set on JCV [1] is listed as “without clinical effect”.

With `CN(C)CCCN1c2ccccc2Sc2ccc(Cl)cc21` [chlorpromazine], in the data set on JCV [2], the “Block of JCV cell entry” value is on record as “block”.

For `O=C1Cc2cc(CCN3CCN(c4nsc5ccccc45)CC3)c(Cl)cc2N1` [zisprasidone], the “Potency as 5HT2(A) receptor antagonist relative to chlorpromazine and clozapine” value in data set [3] is “significantly more potent”.

For glatiramer acetate, in the data set on MS patients [4], the “Subjects who experienced at least one relapse despite treatment” value is 66%.

Regarding “natalizumab: humanized antibody against VLA-4; humanized IgG4κ monoclonal antibody directed against the α-4-subunit of alpha-4 integrins”, in data set [5], the “Interaction between glatiramer acetate and natalizumab pharmacokinetics” value is given as “no interactions”; the “Interaction between glatiramer acetate and natalizumab α4-integrin receptor saturation” value is “no interactions”. Besides, in data set [6] (setting [12]), the “Difference in half-life, concurrent AVONEX versus natalizumab monotherapy” value was “approximately 5%” and the “Difference in steady-state clearance, concurrent AVONEX versus natalizumab monotherapy” value was “approximately 5%”. The “Serum concentrations of natalizumab on administration of AVONEX” value in data set [6] (small cohort with intensive pharmacokinetic sampling, placebo-controlled MS study) is recorded as “increase”. The Deaths result in data set [7] is “two”. In addition, in data set [8] (monotherapy versus placebo), the “Quality of life, physical and mental components of the SF-36” value is reported as “improved”. The Annualized relapse rate in [8] (monotherapy, two years) came out at 0.235. Besides, the “Hazard ratio (95% confidence interval) for sustained progression of disability” value in [8] (natalizumab versus placebo, two years) is 0.58 (0.43, 0.77). Besides, the “Percentage of patients with sustained progression of disability” value in data set [8] (two years, measured by EDSS, monotherapy) came out at 17%. In addition, the Patients remaining relapse-free in [8] (two years, monotherapy) worked out at 67%. The “Risk reduction of disability progression” value in data set [8] (versus placebo, EDSS, two years) came out at 42%. Moreover, in data set [8] (versus placebo, two years), the “Relative reduction in annualized relapse rate” value is given as 68%. Moreover, the Deaths result in the data set on Crohn's Disease patients is listed as “Six”. Further, the “Tolerability in combination with AVONEX” value in data set [9] (589 patients, up to 120 weeks) is “well tolerated”. The “Quality of life, physical components of the SF-36” value in data set [9] (compared to AVONEX therapy alone, trend on the mental component) was “improved”. Also, in [9] (two years, add-on to AVONEX), the Patients relapse-free amounted to 54%. Moreover, the “Risk reduction of disability progression” value in data set [9] (versus AVONEX alone, EDSS, two years) worked out at 24%. Further, the “Relative reduction in annualized relapse rate” value in data set [9] (versus AVONEX, two years) turned out to be 55%. Besides, in the data set on MS patients [10] (3,919 subjects in MS, Crohn's Disease and rheumatoid arthritis trials), the Tolerability result was “generally well tolerated”. In addition, the Occurrence of malignancy entry in the data set with MS patients [10] (during natalizumab treatment, balanced with control groups) was “uncommon”. Also, in the data set with MS patients [10] (human, in vivo), the “Incidence of hypersensitivity reactions” value is on record as “approximately 4%” and the “Incidence of serious systemic hypersensitivity reactions” value is “less than 1%”. Also, the “Adverse events that led to discontinuation” value in the data set with MS patients [10] (natalizumab-treated MS patients) was 5.8%. In addition, the “Discontinuation due to urticaria” value in the data set with MS patients [10] (natalizumab-treated patients, most common cause of discontinuation) was determined as 1.2%. Further, the Deaths entry with MS patients [10] (open-label MS trials) is “Four”. Further, in the data set on MS patients [10] (placebo-controlled MS trial), the “Serious adverse events: MS relapse” value came out at 4.7%; the “Serious adverse events: appendicitis and urinary tract infection” value was less than 1%; the “Serious adverse events: infections and infestations” value stood at 2.4%; the “Serious adverse events: nervous system disorders” value worked out at 5.9%. The “Patients with at least one serious adverse event” value with MS patients [10] (placebo-controlled MS trial, 251 of 1,617 patients) was 15.5%. Also, the Deaths entry in the data set with MS patients [10] (placebo-controlled MS trials, patients who had received natalizumab) is listed as “two”. Moreover, in the data set on JCV [11] (human, in vivo), the “Incidence of PML” value is on record as “approximately 1 /1,000”; the “Incidence of PML, 95% confidence interval” value is recorded as 0.2-2.8 /1,000; the “JCV in CSF” value is on record as “not detected”. In addition, the “Confirmed cases of PML” value in the data set on JCV [11] (two MS patients, one Crohn's Disease patient, two fatal) is given as “Three”.
